Assay [1] has as its target SARS-CoV-2 S1 (residues 1-682, Wuhan-Hu-1), Strep-tagged (SARS-CoV-2, Wuhan-Hu-1, UniProt P0DTC2). The assay is described as follows: ELISA.
Assay [2] deals with SARS-CoV-2 S receptor-binding domain (RBD, residues 329-538, Wuhan-Hu-1), Strep-tagged (SARS-CoV-2, Wuhan-Hu-1, UniProt P0DTC2). The assay is described as follows: ELISA.

From doi:10.1101/2022.02.17.480751 (bioRxiv, 2022) come the findings set out here.

B1: REGN10987 (recombinant human IgG1/kappa) (antibody, V domains shown)
VH: QVQLVESGGGVVQPGRSLRLSCAASGFTFSNYAMYWVRQAPGKGLEWVAVISYDGSNKYYADSVKGRFTISRDNSKNTLYLQMNSLRTEDTAVYYCASGSDYGDYLLVYWGQGTLVTVSS
VL: QSALTQPASVSGSPGQSITISCTGTSSDVGGYNYVSWYQQHPGKAPKLMIYDVSKRPSGVSNRFSGSKSGNTASLTISGLQSEDEADYYCNSLTSISTWVFGGGTKLTVL
For B1, the binding result in assay [1] is recorded as “binds”.

B2: REGN10933 (recombinant human IgG1/kappa) (antibody, V domains shown)
VH: QVQLVESGGGLVKPGGSLRLSCAASGFTFSDYYMSWIRQAPGKGLEWVSYITYSGSTIYYADSVKGRFTISRDNAKSSLYLQMNSLRAEDTAVYYCARDRGTTMVPFDYWGQGTLVTVSS
VL: DIQMTQSPSSLSASVGDRVTITCQASQDITNYLNWYQQKPGKAPKLLIYAASNLETGVPSRFSGSGSGTDFTFTISGLQPEDIATYYCQQYDNLPLTFGGGTKVEIK
Turning to B2, the binding result in assay [1] is “binds”.

B3: 87G7 human monoclonal antibody (recombinant human IgG1/kappa) (antibody, V domains shown)
VH: EVQLLESGGGLVQPGGSLRLSCVASGFTFSSYVMSWVRQAPGKGLEWVAAISGSGGNTYYADSVKGRFTISRDNSKNTLYLQMNSLRAEDTAVYYCAKEGTYYYGSGSFWGQGTLVTVSS
VL: EIVLTQSPATLSLSPGERATLSCRASQSFHNYLAWYQQKPGRAPRLLIFDASNRATGIPARFSGSGSGTDFTLTISSLEPEDFAVYYCQQRFNWPLTFGGGTKVEIK
As to B3, the binding result in assay [2] and in assay [1] was “binds” in each case.
